One series deals with T1, SLAMF5 (CD84) (UniProt Q9UIB8 22-225).
T1 sequence: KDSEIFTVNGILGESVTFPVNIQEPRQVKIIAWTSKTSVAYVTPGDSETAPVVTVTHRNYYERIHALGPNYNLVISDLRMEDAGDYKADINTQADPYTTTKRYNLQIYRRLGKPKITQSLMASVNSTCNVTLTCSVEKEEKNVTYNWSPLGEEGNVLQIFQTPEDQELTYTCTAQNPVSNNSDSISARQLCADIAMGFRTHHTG
Briefly: EMSA; 10 mM PBS buffer, 37 °C, various ratios and times; native PAGE (6 % or 10 % tris-borate); pH not given. To be noted: label: P32; blunt. Background: Mobility shift assays separate free from complexed probe on a gel.

Another series deals with CD34 (UniProt P28906 32-290). The series is described as above. The note with it: label: P32; blunt.
CD34, sequence (P28906 32-290): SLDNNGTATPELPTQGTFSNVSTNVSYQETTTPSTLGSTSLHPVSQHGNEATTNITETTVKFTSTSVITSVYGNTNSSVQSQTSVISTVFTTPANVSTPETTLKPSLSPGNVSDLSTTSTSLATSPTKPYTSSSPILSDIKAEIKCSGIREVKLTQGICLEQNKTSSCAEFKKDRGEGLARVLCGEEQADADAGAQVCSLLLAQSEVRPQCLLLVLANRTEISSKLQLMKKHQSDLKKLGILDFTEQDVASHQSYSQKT

B1: (TTAGGG)9 telomeric repeat, 54 bp (dsDNA)
DNA 1: TTAGGGTTAGGGTTAGGGTTAGGGTTAGGGTTAGGGTTAGGGTTAGGGTTAGGG
DNA 2: CCCTAACCCTAACCCTAACCCTAACCCTAACCCTAACCCTAACCCTAACCCTAA
Turning to B1, the binding result with SLAMF5 (CD84) and with CD34 was “binds” throughout.
